Experiments:
Details in all cases: both partners purified
[1] = target: T1, complement factor H (UniProt P08603 19-1231); assay: SPR; BIAcore 3000; TSP-1 bound covalently to CM5 chips at 0.1 uM; complement proteins as analytes at 12.3, 37.03, 111.1, 333.3, 1,000 nM in PBS plus 0.05% Tween 20; 1:1 Langmuir binding model; average of 3 repeated measurements
T1 construct: Complement factor H; also called FH; source: bought: Complement Technologies

[2] = target: T2, complement C8 (UniProt P07357 31-584; P07358 55-591; P07360 21-202); assay: as above
T2 construct: source: bought: Complement Technologies; copies: + +
T2 sequence (P07357 31-584, chain 1 of 3): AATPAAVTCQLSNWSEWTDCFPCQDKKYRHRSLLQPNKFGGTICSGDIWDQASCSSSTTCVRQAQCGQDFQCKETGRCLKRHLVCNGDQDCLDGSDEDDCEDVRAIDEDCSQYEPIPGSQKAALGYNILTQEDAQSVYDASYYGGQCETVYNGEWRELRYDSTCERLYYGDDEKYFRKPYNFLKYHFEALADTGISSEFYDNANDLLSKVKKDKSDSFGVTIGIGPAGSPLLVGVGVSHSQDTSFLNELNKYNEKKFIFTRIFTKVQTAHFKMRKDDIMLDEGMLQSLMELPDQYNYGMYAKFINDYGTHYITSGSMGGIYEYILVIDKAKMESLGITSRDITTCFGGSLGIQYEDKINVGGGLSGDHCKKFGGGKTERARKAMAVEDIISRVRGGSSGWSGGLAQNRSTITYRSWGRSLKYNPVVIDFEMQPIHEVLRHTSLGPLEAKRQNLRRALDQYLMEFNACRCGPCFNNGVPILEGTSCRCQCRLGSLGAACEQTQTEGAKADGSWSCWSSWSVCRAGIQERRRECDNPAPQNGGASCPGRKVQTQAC
T2 sequence (P07358 55-591, chain 2 of 3): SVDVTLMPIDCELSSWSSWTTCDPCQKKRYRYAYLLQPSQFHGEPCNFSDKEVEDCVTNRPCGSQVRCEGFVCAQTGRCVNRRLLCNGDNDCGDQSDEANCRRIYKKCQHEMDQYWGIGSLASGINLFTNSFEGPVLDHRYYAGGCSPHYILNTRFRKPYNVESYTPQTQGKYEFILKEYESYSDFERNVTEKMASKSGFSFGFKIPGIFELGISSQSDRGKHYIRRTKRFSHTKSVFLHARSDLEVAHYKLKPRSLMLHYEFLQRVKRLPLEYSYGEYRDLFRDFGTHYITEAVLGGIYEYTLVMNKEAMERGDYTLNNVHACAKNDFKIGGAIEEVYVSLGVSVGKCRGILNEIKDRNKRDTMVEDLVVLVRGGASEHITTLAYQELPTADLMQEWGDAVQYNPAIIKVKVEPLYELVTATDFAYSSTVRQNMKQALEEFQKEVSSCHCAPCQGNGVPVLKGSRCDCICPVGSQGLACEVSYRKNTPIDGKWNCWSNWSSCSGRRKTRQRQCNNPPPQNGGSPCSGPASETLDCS
T2 sequence (P07360 21-202, chain 3 of 3): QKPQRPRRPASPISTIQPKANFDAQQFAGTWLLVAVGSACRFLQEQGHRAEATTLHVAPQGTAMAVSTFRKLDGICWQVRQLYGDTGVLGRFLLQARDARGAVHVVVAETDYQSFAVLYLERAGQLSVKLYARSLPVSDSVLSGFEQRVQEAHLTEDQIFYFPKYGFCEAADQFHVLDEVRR

[3] = target: T3, complement C5 (UniProt P01031 19-673; P01031 678-1676); assay: SPR; BIAcore 3000; TSP-1 bound covalently to CM5 chips at 0.1 μM; complement proteins flowed at 12.3, 37.03, 111.1, 333.3, 1,000 nM in PBS plus 0.05% Tween 20; 1:1 Langmuir binding model; average of 3 measurements
T3 construct: Complement C5 beta chain; Complement C5 alpha chain; source: bought: Complement Technologies

[4] = target: T4, complement factor H (FH) (UniProt P08603 19-1231); assay: as above
T4 construct: Complement factor H, obtained from Complement Technologies; source: bought: Complement Technologies

[5] = target: T5, complement C8 (UniProt P07357 31-584; P07358 55-591; P07360 21-202); assay: as above
T5 construct: Complement component C8 alpha chain; Complement component C8 beta chain; Complement component C8 gamma chain; source: bought: Complement Technologies; copies: + +
T5 sequence (P07357 31-584, chain 1 of 3): as the sequence (P07357 31-584, chain 1 of 3) above
T5 sequence (P07358 55-591, chain 2 of 3): as the sequence (P07358 55-591, chain 2 of 3) above
T5 sequence (P07360 21-202, chain 3 of 3): as the sequence (P07360 21-202, chain 3 of 3) above

[6] = target: T6, complement C3 (UniProt P01024 23-667; P01024 672-1663); assay: as above
T6 construct: Complement C3 beta chain (75 kDa), cut from the C3 precursor; Complement C3 alpha chain (110 kDa), cut from the C3 precursor; source: bought: Complement Technologies
T6 sequence (P01024 23-667, chain 1 of 2): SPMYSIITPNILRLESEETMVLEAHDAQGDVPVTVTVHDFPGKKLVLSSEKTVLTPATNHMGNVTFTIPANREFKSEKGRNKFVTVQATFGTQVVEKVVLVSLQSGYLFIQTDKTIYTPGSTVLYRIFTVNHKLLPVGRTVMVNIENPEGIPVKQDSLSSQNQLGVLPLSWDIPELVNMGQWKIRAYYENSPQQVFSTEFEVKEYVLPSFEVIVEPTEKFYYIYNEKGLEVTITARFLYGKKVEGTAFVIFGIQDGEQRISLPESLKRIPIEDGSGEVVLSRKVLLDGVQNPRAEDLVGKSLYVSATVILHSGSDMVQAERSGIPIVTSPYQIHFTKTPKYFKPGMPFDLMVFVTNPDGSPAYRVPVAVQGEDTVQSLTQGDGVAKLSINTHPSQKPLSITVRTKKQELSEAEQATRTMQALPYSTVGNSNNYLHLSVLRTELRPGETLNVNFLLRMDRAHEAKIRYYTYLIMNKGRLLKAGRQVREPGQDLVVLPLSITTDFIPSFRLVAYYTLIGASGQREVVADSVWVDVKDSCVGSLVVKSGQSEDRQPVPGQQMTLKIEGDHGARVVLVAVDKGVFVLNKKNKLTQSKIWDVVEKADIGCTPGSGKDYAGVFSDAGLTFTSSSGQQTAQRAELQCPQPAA
T6 sequence (P01024 672-1663, chain 2 of 2): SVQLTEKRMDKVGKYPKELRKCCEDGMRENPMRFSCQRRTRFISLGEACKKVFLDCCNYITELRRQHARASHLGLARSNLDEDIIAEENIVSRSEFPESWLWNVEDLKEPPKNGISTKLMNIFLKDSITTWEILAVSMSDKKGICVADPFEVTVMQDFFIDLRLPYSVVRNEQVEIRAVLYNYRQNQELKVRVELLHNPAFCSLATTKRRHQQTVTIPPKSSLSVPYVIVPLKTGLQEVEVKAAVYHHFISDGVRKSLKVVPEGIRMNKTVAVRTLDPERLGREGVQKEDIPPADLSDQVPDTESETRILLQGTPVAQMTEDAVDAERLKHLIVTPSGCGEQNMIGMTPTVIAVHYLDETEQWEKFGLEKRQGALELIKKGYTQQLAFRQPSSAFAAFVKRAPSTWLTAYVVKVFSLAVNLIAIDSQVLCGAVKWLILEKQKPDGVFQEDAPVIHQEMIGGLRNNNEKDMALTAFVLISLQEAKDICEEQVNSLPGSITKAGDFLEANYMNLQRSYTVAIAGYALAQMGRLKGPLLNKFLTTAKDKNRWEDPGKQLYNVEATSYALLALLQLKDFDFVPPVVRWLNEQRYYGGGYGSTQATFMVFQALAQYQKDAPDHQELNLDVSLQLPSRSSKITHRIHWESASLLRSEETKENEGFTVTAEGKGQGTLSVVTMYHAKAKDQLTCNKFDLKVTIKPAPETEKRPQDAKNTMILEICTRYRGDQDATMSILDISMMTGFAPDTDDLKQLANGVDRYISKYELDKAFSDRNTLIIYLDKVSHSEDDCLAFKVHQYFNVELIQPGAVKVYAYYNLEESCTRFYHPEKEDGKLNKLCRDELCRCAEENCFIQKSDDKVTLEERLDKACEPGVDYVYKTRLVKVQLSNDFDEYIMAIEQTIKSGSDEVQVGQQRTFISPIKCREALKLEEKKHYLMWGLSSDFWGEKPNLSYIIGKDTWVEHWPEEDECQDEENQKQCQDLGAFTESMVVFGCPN

T3 sequence (P01031 19-673, chain 1 of 2): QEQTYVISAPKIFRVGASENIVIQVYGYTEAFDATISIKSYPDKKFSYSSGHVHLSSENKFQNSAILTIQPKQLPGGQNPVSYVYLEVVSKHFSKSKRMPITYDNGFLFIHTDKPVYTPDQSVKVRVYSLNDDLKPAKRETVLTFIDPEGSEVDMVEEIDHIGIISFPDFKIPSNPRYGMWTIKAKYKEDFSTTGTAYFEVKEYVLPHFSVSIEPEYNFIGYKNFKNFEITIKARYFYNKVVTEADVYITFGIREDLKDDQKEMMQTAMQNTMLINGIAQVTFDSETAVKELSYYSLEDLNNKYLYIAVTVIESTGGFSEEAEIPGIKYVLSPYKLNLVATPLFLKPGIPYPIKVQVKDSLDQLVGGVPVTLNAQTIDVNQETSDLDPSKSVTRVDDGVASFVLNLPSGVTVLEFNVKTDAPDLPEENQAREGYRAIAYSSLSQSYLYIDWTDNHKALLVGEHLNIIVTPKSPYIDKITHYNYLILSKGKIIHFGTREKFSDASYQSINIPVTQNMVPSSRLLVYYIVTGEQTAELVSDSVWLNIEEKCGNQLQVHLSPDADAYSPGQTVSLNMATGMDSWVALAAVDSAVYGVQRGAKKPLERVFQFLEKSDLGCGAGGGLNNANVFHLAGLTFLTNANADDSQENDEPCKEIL
T3 sequence (P01031 678-1676, chain 2 of 2): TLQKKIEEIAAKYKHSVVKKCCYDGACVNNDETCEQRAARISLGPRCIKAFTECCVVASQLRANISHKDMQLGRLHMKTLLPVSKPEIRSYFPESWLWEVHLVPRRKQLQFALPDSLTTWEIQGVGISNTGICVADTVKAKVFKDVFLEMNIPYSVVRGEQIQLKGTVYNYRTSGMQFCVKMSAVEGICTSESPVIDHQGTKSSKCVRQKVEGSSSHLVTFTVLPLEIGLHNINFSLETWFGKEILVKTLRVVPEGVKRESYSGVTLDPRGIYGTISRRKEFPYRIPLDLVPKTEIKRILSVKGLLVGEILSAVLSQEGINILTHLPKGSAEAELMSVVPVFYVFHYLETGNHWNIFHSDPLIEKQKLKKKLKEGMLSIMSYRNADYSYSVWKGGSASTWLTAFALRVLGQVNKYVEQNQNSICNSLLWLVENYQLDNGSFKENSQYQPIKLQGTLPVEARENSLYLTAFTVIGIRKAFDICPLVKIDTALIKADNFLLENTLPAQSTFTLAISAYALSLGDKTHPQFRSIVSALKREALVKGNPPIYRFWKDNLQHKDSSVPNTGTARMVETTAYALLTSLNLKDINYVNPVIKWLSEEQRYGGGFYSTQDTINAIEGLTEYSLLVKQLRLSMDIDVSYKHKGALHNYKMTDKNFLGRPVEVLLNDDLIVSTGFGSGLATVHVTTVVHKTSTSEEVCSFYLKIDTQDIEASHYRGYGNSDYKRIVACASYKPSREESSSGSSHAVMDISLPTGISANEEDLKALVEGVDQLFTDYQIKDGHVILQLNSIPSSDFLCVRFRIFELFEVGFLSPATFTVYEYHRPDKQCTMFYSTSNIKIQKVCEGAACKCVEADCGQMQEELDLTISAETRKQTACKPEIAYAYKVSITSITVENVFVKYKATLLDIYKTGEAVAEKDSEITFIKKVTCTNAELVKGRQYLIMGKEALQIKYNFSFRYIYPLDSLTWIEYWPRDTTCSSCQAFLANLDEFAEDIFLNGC

| Binder | Kd [1] [nM] | Kd [2] [nM] | Kd [3] [nM] | Kd [4] [nM] | Kd [5] [nM] | Kd [6] [nM] |
| --- | --- | --- | --- | --- | --- | --- |
| recombinant full-length thrombospondin-1 (natural protein, Thrombospondin-1, human cDNA from Sinobiological (HG10508-UT), subcloned into pFastbac1 behind a gp67 signal peptide for secretion; The gp67 signal peptide stands in place of or before the native one; also called TSP-1; source: Spodoptera frugiperda 9 cells (baculovirus), purified from cell supernatants via Ni-NTA columns; not shown: 10xHis, N-terminal, kept) not shown | 203 | 310 |  |  |  |  |
| recombinant full-length thrombospondin-1 (TSP-1) (natural protein, Thrombospondin-1, human cDNA (Sinobiological HG10508-UT) subcloned into pFastbac1 with a gp67 signal peptide for secretion and an N-terminal 10xHis tag; called recombinant full-length TSP-1; Secreted through a gp67 signal peptide; also called recombinant TSP-1; source: Spodoptera frugiperda 9 cells (baculovirus), purified from cell supernatants via Ni-NTA columns; not shown: 10xHis, N-terminal, …) not shown |  |  | 47 | 203 | 311 | 127 |

Source: PMC12208556, “Thrombospondin-1 inhibits alternative complement pathway activation in antineutrophil cytoplasmic antibody-associated vasculitis” (The Journal of Clinical Investigation, 2025)
